Experimental data published in the supplement of paper PMC6755084.

B1: F1*; the commonest letter at each place (parent)
chain: GAGACCGCAACTGAAAAGTTGTTATCACTTGTCGTAAGACACTTTGGATGGGTTGAAGTTCTGCACGTAGAAGCAAAAGGC

Variants of: B1
Experiment: fraction ligated after 30 min (ligated reads / total reads); higher = more ligase activity
Details: with F1*sub RNA substrate (template-directed ligation), 42 °C
Summary of the method: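 Oligo-pool templates of ligase ribozyme variants were PCR-amplified, T7-transcribed and gel-purified. Ligated and unligated bands were gel-separated, reverse transcribed with barcoded primers, and MiSeq-sequenced; core bases were filtered at quality ≥20. Fraction ligated per variant was ligated reads over total reads.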

Variant | fraction ligated
A27C T32A | 0.799
C26T A48G | 0.756
A37G G47T | 0.397
T23A T44A | 0.819
T35A A37G | 0.844
A24C A41C | 0.00606
T32A T43G | 0.789
T32G A57G | 0.844
T32G A57C | 0.82
T25G T29A | 0.773
T29G A39C | 0.822
C26G G46T | 0.417
C26G C33G | 0.754
T29C A48T | 0.592
G34T T43C | 0.782
A27C G50C | 0.0749
C26G C42T | 0.76
T30A A36T | 0.823
A24T T43G | 0.708
T44G G55C | 0.729
G38T A41T | 0.798

Variant | fraction ligated
C28T G46T | 0.788
T29G A57T | 0.811
T43A T49C | 0.605
T25G A56T | 0.0925
C33A G47C | 0.109
T25A A56C | 0.0125
C42T T44C | 0.855
T23G A24C | 0.773
T23G A24G | 0.091
T23C T43A | 0.815
T23G T29C | 0.784
T30C A39G | 0.782
C40A G50T | 0.488
T25A A39T | 0.255
G38T A48G | 0.792
C28T T44C | 0.783
C26A C28T | 0.584
T30G T32A | 0.883
T23A G34A | 0.814
A27T G47C | 0.0127
G34C G50C | 0.329

Variant | fraction ligated
T29A A48T | 0.801
A36C A41T | 0.814
A27T G38C | 0.784
C33G G46T | 0.811
A37C G46C | 0.795
G31C A41C | 0.492
C42G T45G | 0.291
T25A G46C | 0.137
A24C T44G | 0.292
T23A A48G | 0.596
T25C C42G | 0.769
C26G T45G | 0.0236
T25C G47C | 0.0468
T25C G47A | 0.734
T25C G38T | 0.747
G34A T49C | 0.737
T25A G38A | 0.353
A48T T49G | 0.348
C26A A56C | 0.0368
C28T T29A | 0.823
A41T G55C | 0.706

Variant | fraction ligated
T30C T43C | 0.788
A37C G55T | 0.845
A24C A57G | 0.633
G31C A48C | 0.242
T25G T43G | 0.515
T30C T32G | 0.809
T23C A36T | 0.823
T49C A56T | 0.0726
A36C G46A | 0.793
T29C G50T | 0.41
T25C T49A | 0.777
G34T A57G | 0.84
T30C C42G | 0.817
T43G A56G | 0.717
C26G T30G | 0.757
A37T T44A | 0.834
G31A A57T | 0.796
G47T A56T | 0.0333
T30C G46C | 0.759
G50T A57C | 0.172
G55C A56G | 0.843
